Results from US20060009622A1 (ADMINISTRATORS OF THE TULANE EDUCATIONAL FUND, published 2006).
Numbered stars: 1 amine (or outer) side, 2 acyl side, 3 side chain; on linkers, the order of the positions; unused ones are H or OH. Bridge positions count the residues as written; N and C are the ends. Square brackets hold non-standard residues; d marks the D form. Ends that are not written are not given here. NGly(2-(methylamino)ethyl) = CN(CCN(CC(=O)[*:2])[*:1])[*:3]; N(2-Aminoethyl)Gly = O=C(CN(CCN[*:3])[*:1])[*:2]; Nle = CCCC[C@H](N)C(=O)O

B1: camptothecin-carbonyl-N-(N-methyl-2-aminoethyl)-glycine-D-Ser-Nle-D-Tyr-D-Ser-cyclo[Cys-Phe-D-Trp-Lys-Thr-Cys]-Thr-amide (peptide)
peptide: [NGly(2-(methylamino)ethyl)][dS][Nle][dY][dS]CF[dW]KTCT-NH2
modifications: disulfide 6-11; not fully specified (N-terminus); printed as camptothecin-carbonyl-N-(N-methyl-2-aminoethyl)-glycine-D-Ser-Nle-D-Tyr-D-Ser-cyclo[Cys-Phe-D-Trp-Lys-Thr-Cys]-Thr-amide
B2: camptothecin-carbonyl-N-(2-aminoethyl)-glycine-D-Ser-Nle-D-Tyr-D-Ser-cyclo[Cys-Phe-D-Trp-Lys-Thr-Cys]-Thr-amide (peptide)
peptide: [N(2-Aminoethyl)Gly][dS][Nle][dY][dS]CF[dW]KTCT-NH2
modifications: disulfide 6-11; not fully specified (N-terminus); printed as camptothecin-carbonyl-N-(2-aminoethyl)-glycine-D-Ser-Nle-D-Tyr-D-Ser-cyclo[Cys-Phe-D-Trp-Lys-Thr-Cys]-Thr-amide
B3: combretastatin-carbonyl-N-(2-aminoethyl)-glycine-D-Ser-Nle-D-Tyr-D-Ser-cyclo[Cys-Phe-D-Trp-Lys-Thr-Cys]-Thr-amide (peptide)
peptide: [N(2-Aminoethyl)Gly][dS][Nle][dY][dS]CF[dW]KTCT-NH2
modifications: disulfide 6-11; not fully specified (N-terminus); printed as combretastatin-carbonyl-N-(2-aminoethyl)-glycine-D-Ser-Me-D-Tyr-D-Ser-cyclo[Cys-Phe-D-Trp-Lys-Thr-Cys]-Thr-amide

target: human type 2 somatostatin receptor (human, UniProt P30874 1-369, limits assumed); test: cell-based or functional assay
Sequence (P30874 whole entry): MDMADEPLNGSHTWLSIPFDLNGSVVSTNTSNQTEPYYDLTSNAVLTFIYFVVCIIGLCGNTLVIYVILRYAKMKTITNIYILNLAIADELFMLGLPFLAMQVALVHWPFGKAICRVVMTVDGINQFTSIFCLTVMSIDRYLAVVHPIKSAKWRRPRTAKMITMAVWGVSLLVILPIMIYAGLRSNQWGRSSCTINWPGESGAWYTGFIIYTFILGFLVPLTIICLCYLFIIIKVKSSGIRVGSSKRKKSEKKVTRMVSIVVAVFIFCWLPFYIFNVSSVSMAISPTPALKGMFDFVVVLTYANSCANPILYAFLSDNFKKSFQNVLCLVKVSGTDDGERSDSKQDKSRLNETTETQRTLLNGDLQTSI

Row | Growth Hormone Inhibition IC50, nM (inhibition of GNRH-stimulated GH release from monolayer cultures of rat pituitary cells) | Molecule
1 | 0.63 nM | somatostatin-14 (from UniProt P61278 89-116) (peptide)
2 | 0.27 nM | B1
3 | 0.32 nM | B2
4 | 0.31 nM | B3
